The source of these data is patent US20200087373A1 (UNIVERSITY OF COPENHAGEN, published 2020).

What is called IC50 is the midpoint of a concentration-inhibition curve. Low readings indicate greater potency in that assay, high ones weaker potency in that assay.

Ends that are not written are not given here. * marks the point of attachment. C16 diacid = O=C(O)CCCCCCCCCCCCCCC(=O)*

In experiment [1] the target is T1, human GIP receptor (human, UniProt P48546 22-466).
T1 sequence (looked up): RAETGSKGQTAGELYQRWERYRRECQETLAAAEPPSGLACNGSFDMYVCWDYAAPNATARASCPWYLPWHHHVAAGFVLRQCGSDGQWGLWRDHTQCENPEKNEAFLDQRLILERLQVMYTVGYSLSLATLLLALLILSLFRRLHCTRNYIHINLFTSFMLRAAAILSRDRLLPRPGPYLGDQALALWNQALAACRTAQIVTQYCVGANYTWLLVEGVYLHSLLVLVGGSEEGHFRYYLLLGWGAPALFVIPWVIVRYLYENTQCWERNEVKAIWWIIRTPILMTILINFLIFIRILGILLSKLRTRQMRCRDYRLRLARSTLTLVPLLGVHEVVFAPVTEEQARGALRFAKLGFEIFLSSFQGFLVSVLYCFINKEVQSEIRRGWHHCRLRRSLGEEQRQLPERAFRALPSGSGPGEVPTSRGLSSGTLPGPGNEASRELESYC
Briefly: cell-based or functional assay.

The target of experiment [2] is T1, human GIP receptor. The experiment is described as follows: 125I-hGIP competition binding, COS-7/hGIPR, 2% HSA.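 Further: nonspecific binding defined as radioligand binding to untransfected cells.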
Experimental: (§1) After incubation, the cells were washed twice in ice-cold binding buffer (+/−2% HSA) and lysed using 200 mM NaOH with 1% SDS for 30 min. Nonspecific binding was determined as the binding of radioactive ligand to untransfected cells.
Experiment [3] has as its target T1, human GIP receptor. Briefly: 125I-hGIP competition binding, COS-7/hGIPR, 0.1% casein.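 Further: nonspecific binding defined as radioligand binding measured on untransfected cells.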
Experimental: as §1
Experiment [4] addresses T1, human GIP receptor. Briefly: 125I-hGIP competition binding, COS-7 cells expressing hGIPR.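 Further: nonspecific binding taken as radioligand bound by untransfected cells, binding buffer with or without 2% HSA.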
Experimental: as §1
Experiment [5] has as its target T1, human GIP receptor. The experiment is described as follows: IC50 with 2% HSA over IC50 with 0.1% casein, 125I-hGIP competition, COS-7/hGIPR.
Experimental: as §1

B1: AT175 [hGIP(5-30)NH2[A13K]-C16diacid/13] (peptide)
peptide: TFISDYSIK(C16 diacid)MDKIHQQDFVNWLLAQK-NH2
modifications: N-terminus assumed
SMILES: CC[C@H](C)[C@H](NC(=O)[C@H](CCCCN)NC(=O)[C@H](CC(=O)O)NC(=O)[C@H](CCSC)NC(=O)[C@H](CCCCNC(=O)CCCCCCCCCCCCCCC(=O)O)NC(=O)[C@@H](NC(=O)[C@H](CO)NC(=O)[C@H](Cc1ccc(O)cc1)NC(=O)[C@H](CC(=O)O)NC(=O)[C@H](CO)NC(=O)[C@@H](NC(=O)[C@H](Cc1ccccc1)NC(=O)[C@@H](N)[C@@H](C)O)[C@@H](C)CC)[C@@H](C)CC)C(=O)N[C@@H](Cc1c[nH]cn1)C(=O)N[C@@H](CCC(N)=O)C(=O)N[C@@H](CCC(N)=O)C(=O)N[C@@H](CC(=O)O)C(=O)N[C@@H](Cc1ccccc1)C(=O)N[C@H](C(=O)N[C@@H](CC(N)=O)C(=O)N[C@@H](Cc1c[nH]c2ccccc12)C(=O)N[C@@H](CC(C)C)C(=O)N[C@@H](CC(C)C)C(=O)N[C@@H](C)C(=O)N[C@@H](CCC(N)=O)C(=O)N[C@@H](CCCCN)C(N)=O)C(C)C
B1: in experiment [1], the “cAMP agonism, Emax” value was found to be 0; the “cAMP antagonism” value amounted to 17 nM; the “cAMP antagonism, log” value was -7.8 log M. In addition, in experiment [2], the IC50 is 562 nM and the logIC50 was -6.3 log M. In experiment [3], this molecule showed an IC50 of 72.4 nM and a logIC50 of -7.1 log M. Besides, in experiment [4], the IC50 was found to be 73 nM and the “log IC50” value is -7.1 log M. In addition, the “Fold change HSA (2%)/Casein (0.1%)” value in experiment [5] was found to be 7.8 fold.

B2: AT176 [hGIP(5-30)NH2[M14K]-C16diacid/14] (peptide)
peptide: TFISDYSIAK(C16 diacid)DKIHQQDFVNWLLAQK-NH2
modifications: N-terminus assumed
SMILES: CC[C@H](C)[C@H](NC(=O)[C@H](CO)NC(=O)[C@H](Cc1ccc(O)cc1)NC(=O)[C@H](CC(=O)O)NC(=O)[C@H](CO)NC(=O)[C@@H](NC(=O)[C@H](Cc1ccccc1)NC(=O)[C@@H](N)[C@@H](C)O)[C@@H](C)CC)C(=O)N[C@@H](C)C(=O)N[C@@H](CCCCNC(=O)CCCCCCCCCCCCCCC(=O)O)C(=O)N[C@@H](CC(=O)O)C(=O)N[C@@H](CCCCN)C(=O)N[C@H](C(=O)N[C@@H](Cc1c[nH]cn1)C(=O)N[C@@H](CCC(N)=O)C(=O)N[C@@H](CCC(N)=O)C(=O)N[C@@H](CC(=O)O)C(=O)N[C@@H](Cc1ccccc1)C(=O)N[C@H](C(=O)N[C@@H](CC(N)=O)C(=O)N[C@@H](Cc1c[nH]c2ccccc12)C(=O)N[C@@H](CC(C)C)C(=O)N[C@@H](CC(C)C)C(=O)N[C@@H](C)C(=O)N[C@@H](CCC(N)=O)C(=O)N[C@@H](CCCCN)C(N)=O)C(C)C)[C@@H](C)CC
Take B2: in experiment [1], the “cAMP agonism” value turned out to be 121 nM; the “cAMP agonism, EC50 (log)” value was -7 log M; the “cAMP agonism, Emax” value was found to be 12; the “cAMP antagonism” value was 121 nM. Besides, the “cAMP antagonism, log” value in experiment [1] was -6.9 log M. Also, in experiment [2], the IC50 was 562 nM and the logIC50 was -6.3 log M. In experiment [3], this molecule gave an IC50 of 115 nM and a logIC50 of -6.9 log M. Moreover, in experiment [4], the IC50 was 114 nM and the “log IC50” value was -6.9 log M. Moreover, the “Fold change HSA (2%)/Casein (0.1%)” value in experiment [5] worked out at 4.9 fold.
